The text below walks through data of patent US20200140542A1 (OSAKA UNIVERSITY, published 2020).

Experiment [1] concerns the target T1, human CL-7 (human, UniProt O95471 1-211).
T1 construct: whole, on cells; also called hCL-7; hCL-7/HT1080 cells
T1 sequence (looked up): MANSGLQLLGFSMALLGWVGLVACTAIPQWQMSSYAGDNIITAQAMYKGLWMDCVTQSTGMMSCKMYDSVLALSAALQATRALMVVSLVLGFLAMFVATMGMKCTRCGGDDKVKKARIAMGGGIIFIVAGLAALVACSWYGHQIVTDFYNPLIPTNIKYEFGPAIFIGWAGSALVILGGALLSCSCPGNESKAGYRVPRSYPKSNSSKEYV
The experiment can be described thus: flow cytometry, hybridoma culture supernatant on transfected cells. The method, then: (§1) After the hybridoma culture supernatants prepared in Example 1 (1A2, 2G8, and 3B2) were individually added and stirred, the resulting mixtures were allowed to stand on ice for 1 hour. After washing with 0.2% BSA-PBS once, goat anti-rat IgG (H +L)-FITC antibody (KPL) diluted with 1% BSA-PBS was added and stirred, and the resulting mixtures were allowed to stand on ice for 30 minutes. After washing with 0.2% BSA-PBS once, PI (Mitenyi Biotec) diluted with 1% BSA-PBS to a final concentration of 5 μg/mL was added, and FCM analysis was performed.
(In general: In flow cytometry, cells or beads pass a laser one at a time.)

In experiment [2] the target is T2, human CL-9 (human, UniProt O95484 1-217).
T2 construct: whole, on cells; also called hCL-9; hCL-9/HT1080 cells
T2 sequence (looked up): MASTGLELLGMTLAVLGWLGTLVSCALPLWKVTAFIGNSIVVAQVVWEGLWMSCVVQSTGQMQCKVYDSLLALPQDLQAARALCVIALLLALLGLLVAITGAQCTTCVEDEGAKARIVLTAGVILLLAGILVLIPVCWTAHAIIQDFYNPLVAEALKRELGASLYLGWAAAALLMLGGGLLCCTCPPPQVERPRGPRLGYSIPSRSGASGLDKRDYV
Described as above. The method, then:
as §1

For experiment [3], the target named is T3, human CL-4 (human, UniProt O14493 1-209).
T3 construct: whole, on cells; also called hCL-4; hCL-4/HT1080 cells
T3 sequence (looked up): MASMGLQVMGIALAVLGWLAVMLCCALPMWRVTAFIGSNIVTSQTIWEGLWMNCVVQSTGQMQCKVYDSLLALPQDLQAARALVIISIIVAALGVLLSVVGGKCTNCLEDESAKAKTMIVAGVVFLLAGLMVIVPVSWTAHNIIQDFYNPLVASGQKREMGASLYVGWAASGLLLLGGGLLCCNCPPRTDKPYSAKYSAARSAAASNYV
The description is as above. The method, then: as §1

In experiment [4] the target is T4, human CL-3 (human, UniProt O15551 1-220).
T4 construct: whole, on cells; also called hCL-3; hCL-3/HT1080 cells
T4 sequence (looked up): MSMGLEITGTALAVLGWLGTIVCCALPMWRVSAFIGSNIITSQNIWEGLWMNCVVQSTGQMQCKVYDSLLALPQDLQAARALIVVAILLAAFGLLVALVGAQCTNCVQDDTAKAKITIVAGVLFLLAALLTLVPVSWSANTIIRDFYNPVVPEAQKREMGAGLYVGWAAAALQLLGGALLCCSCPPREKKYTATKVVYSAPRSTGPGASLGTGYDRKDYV
The experiment is described as above. The procedure: as §1

The target in experiment [5] is T5, human CL-6 (human, UniProt P56747 1-220).
T5 construct: whole, on cells; also called hCL-6; hCL-6/HT1080 cells
T5 sequence (looked up): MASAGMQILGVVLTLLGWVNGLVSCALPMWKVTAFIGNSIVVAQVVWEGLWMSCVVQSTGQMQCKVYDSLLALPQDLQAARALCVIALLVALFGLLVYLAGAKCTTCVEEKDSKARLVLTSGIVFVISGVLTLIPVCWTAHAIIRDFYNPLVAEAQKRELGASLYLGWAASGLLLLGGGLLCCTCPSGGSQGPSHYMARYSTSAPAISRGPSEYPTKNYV
The description is as above. The procedure:
as §1

Experiment [6] concerns the target T6, human CL-1 (human, UniProt O95832 1-211).
T6 construct: whole, on cells; also called hCL-1; hCL-1/HT1080 cells
T6 sequence (looked up): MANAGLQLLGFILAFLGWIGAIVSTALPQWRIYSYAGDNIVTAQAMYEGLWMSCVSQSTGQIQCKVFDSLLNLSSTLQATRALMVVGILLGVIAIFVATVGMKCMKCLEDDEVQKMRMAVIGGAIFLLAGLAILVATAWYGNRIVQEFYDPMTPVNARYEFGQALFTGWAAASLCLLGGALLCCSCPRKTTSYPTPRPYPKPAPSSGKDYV
Described as above. The method, then: as §1

Experiment [7] concerns the target T7, mouse CL-2 (mouse, UniProt O88552 1-230).
T7 construct: whole, on cells; also called mCL-2; mCL-2/L cells
T7 sequence (looked up): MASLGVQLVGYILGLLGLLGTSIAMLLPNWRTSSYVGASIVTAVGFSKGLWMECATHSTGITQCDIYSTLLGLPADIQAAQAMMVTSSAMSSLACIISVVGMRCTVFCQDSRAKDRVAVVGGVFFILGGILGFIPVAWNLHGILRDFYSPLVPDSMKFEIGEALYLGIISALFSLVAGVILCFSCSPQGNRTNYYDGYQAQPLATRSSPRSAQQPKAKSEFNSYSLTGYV
Briefly: flow cytometry, culture supernatant on transfected cells. The method, then:
as §1
Further, all the three hybridoma culture supernatants 1A2, 2G8, and 3B2 prepared in Example 1 were also confirmed to have affinity to mCL-2/L cells.

Experiment [8] has as its target T8, mouse CLDN1 (mouse, UniProt O88551 1-211).
T8 construct: whole, on cells; also called mCL-1; mCL-1/L cells
T8 sequence (looked up): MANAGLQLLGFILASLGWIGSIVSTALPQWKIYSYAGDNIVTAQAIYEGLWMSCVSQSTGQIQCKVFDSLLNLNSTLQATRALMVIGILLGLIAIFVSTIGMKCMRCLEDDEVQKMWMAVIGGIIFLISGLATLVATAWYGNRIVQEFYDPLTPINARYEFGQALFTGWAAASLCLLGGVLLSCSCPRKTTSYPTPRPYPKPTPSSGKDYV
Briefly: flow cytometry on transfected cells. An excerpt: (§2) hCL-1/HT1080 cells, hCL-2/HT1080 cells, hCL-3/HT1080 cells, hCL-4/HT1080 cells, human CL-5 expressing HT1080 cells (hCL-5/HT1080 cells), hCL-6/HT1080 cells, hCL-7/HT1080 cells, and hCL-9/HT1080 cells, mouse CLDN1 expressing L cells (mCL-1/L cells), mCL-2/L cells, and mouse CL4 expressing L cells (mCL-4/L cells) were individually recovered by trypsin treatment. […] Subsequently, after washing with 0.2% BSA-PBS once, goat anti-human IgG (H+L)-FITC antibody (Jackson ImmunoResearch) diluted with 1% BSA-PBS was added and stirred, and the resulting mixtures were allowed to stand on ice for 30 minutes. After washing with 0.2% BSA-PBS once, PI diluted with 1% BSA-PBS to a final concentration of 5 μg/mL was added, and FCM analysis was performed.

Experiment [9] deals with T1, human CL-7. Briefly: flow cytometry on transfected cells.
Description: as §2

Experiment [10] addresses T2, human CL-9. Briefly: flow cytometry on transfected cells.
Description: as §2

In experiment [11] the target is T9, human CL-5 (human, UniProt O00501 1-218).
T9 construct: whole, on cells; also called hCL-5; hCL-5/HT1080 cells
T9 sequence (looked up): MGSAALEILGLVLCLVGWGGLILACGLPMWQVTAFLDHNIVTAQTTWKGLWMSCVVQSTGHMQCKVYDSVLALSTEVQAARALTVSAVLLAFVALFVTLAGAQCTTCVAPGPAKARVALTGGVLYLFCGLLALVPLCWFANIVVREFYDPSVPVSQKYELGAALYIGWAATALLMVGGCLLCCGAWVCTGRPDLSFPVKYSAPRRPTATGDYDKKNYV
The experiment can be described thus: flow cytometry on transfected cells.
Description: as §2

For experiment [12], the target named is T10, mouse CL4 (mouse, UniProt O35054 1-210).
T10 construct: whole, on cells; also called mCL-4; mCL-4/L cells
T10 sequence (looked up): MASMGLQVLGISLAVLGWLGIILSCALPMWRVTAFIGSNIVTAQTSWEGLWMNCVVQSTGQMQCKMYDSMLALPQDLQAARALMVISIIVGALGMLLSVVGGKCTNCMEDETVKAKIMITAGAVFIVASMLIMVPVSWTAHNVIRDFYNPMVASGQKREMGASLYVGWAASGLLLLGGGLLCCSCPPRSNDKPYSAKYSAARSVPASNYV
Briefly: flow cytometry on transfected cells.
Description: as §2

Experiment [13] concerns the target T3, human CL-4. The experiment can be described thus: flow cytometry on transfected cells.
Description: as §2

In experiment [14] the target is T4, human CL-3. Briefly: flow cytometry on transfected cells.
Description: as §2

Experiment [15] has as its target T5, human CL-6. The experiment can be described thus: flow cytometry on transfected cells.
Description: as §2

For experiment [16], the target named is T6, human CL-1. The experiment can be described thus: flow cytometry on transfected cells.
Description: as §2

Experiment [17] has as its target T7, mouse CL-2. The experiment can be described thus: flow cytometry on transfected cells, antibody at 5 µg/mL.
Description: as §2

B1: anti-CL-2 antibody 2G8 (antibody, IgG2b, V domains shown)
VH: QVNLLQSGAALVKPGASVRLSCRVSGYSFTVSFLHWVKQSHGKSLEWIGYINPYSGSPNYNEKFKSKTTLTVDKSTSTAYMELSGLTSEDSASYYCTNWDYWGQGVMVTVSS
VL: DVVMTQTPVSLSLAIGQPASISCKSSQSLLGSSGKTFLNWILQRPGQSPKRLIYQVSTLYSEVPDRFSGSGSETEFTLKITRVEAEDLGVYYCWQGIHFPHTFGAGTKLELKR
notes: also called clone 2G8; hybridoma culture supernatant 2G8
For the molecule B1, the binding result in [1], in experiment [2], in experiment [3], in experiment [4], in experiment [5] and in experiment [6] was “no binding” each time. For the same molecule, in experiment [7], the binding result is reported as “binds”.

B2: anti-CL-2 human-rat chimeric antibody 2G8 produced in Example 4 (antibody, V domains shown)
VH: QVNLLQSGAALVKPGASVRLSCRVSGYSFTVSFLHWVKQSHGKSLEWIGYINPYSGSPNYNEKFKSKTTLTVDKSTSTAYMELSGLTSEDSASYYCTNWDYWGQGVMVTVSS
VL: DVVMTQTPVSLSLAIGQPASISCKSSQSLLGSSGKTFLNWILQRPGQSPKRLIYQVSTLYSEVPDRFSGSGSETEFTLKITRVEAEDLGVYYCWQGIHFPHTFGAGTKLELKR
notes: Variable regions of rat 2G8 cloned into vectors with human constant regions (VH: pFUSE-CHIg-hG1, human IgG1); also called anti-CL-2 chimeric antibody 2G8; anti-CL-2 chimeric antibody 2G8a
B2: the binding result in experiment [8], in experiment [9], in experiment [10], in experiment [11], in experiment [12] and in experiment [13] was “no binding (tested: 5 µg/mL)” in each case. Further, the binding result is listed as “no binding (tested: 5 µg/mL)” in experiment [14], “no binding (tested: 5 µg/mL)” in experiment [15], “no binding (tested: 5 µg/mL)” in experiment [16] and “binds” in experiment [17].
